Values quoted from earlier work as cited in patent US10544449B2, “Bis-biotinylation tags” (Pacific Biosciences of California, Inc., priority 2013, dated 2020).

What was measured:
[1] = cited from earlier work
[2] = compared with streptavidin; cited from earlier work

Row | Substance | accumulation in kidney, share of injected dose ([1]; injected streptavidin) | time remaining in the kidneys ([1]; mice, rats, and rabbits) [days] | slower biotin off-rate [2] [fold]
1 | streptavidin | 15-20% | 3 to 4 | 
2 | traptavidin |  |  | ~10
